In patent US20040209839, “Human peroxisome proliferator activated receptor gamma” (published 2004):

Tests used:
hPPARgamma = hPPARgamma (Homo sapiens, UniProt P37231 SEQ:20-494); assay: EMSA; hPPARgamma alone, no complex; conditions: tags: T3 coupled reticulocyte lysate (Promega), label: 32P end
[1] = biological target: hPPARgamma/hRXRalpha heterodimer (Homo sapiens, UniProt P37231;P19793 P37231:31-505,P19793:1-462); assay: EMSA; strong retarded complex; conditions: tags: hPPARgamma in vitro translated, hRXRalpha baculovirus/Sf21 expressed, label: 32P end
Sequence of hPPARgamma/hRXRalpha heterodimer (P37231 31-505, chain 1 of 2): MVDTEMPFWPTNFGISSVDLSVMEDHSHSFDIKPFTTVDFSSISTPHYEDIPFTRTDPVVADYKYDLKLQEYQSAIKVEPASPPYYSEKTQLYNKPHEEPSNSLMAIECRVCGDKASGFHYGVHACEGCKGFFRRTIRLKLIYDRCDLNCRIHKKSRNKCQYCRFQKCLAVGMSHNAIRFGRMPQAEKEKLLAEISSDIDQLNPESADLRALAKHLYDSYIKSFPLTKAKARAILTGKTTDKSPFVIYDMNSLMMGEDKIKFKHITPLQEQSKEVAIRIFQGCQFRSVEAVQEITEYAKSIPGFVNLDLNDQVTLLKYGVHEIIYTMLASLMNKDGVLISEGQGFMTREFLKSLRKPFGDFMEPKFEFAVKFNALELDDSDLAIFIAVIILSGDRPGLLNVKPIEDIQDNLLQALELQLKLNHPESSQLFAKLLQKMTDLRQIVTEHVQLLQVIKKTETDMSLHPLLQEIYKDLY
Sequence of hPPARgamma/hRXRalpha heterodimer (P19793 whole entry, chain 2 of 2): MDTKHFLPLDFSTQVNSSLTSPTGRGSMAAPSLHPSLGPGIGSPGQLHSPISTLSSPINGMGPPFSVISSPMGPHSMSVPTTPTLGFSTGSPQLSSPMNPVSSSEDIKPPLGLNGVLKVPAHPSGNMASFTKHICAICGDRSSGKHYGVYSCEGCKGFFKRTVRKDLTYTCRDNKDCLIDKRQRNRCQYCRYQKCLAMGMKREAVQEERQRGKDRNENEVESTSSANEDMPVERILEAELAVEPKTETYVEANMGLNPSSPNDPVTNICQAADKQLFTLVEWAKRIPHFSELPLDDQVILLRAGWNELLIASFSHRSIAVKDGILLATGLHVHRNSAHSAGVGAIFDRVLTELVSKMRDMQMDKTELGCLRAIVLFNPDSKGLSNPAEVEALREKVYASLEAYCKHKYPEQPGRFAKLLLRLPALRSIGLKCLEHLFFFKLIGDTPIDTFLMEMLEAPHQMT

Sequence of hPPARgamma (P37231 31-505): as the sequence (P37231 31-505, chain 1 of 2) above

B1: ApoA1 A site (dsDNA)
DNA 1: GATCCCCACTGAACCCTTGACCCCTGCCCTGCAGCA
DNA 2: TGCTGCAGGGCAGGGGTCAAGGGTTCAGTGGGGATC
binding result (hPPARgamma): no binding
binding result [1]: binds

B2: AOX PPRE (dsDNA)
DNA 1: CTAGCGATATCATGACCTTTGTCCTAGGCCTC
DNA 2: CTAGGAGGCCTAGGACAAAGGTCATGATATCG
binding result (hPPARgamma; 5' CTAG overhangs): no binding
binding result ([1]; 5' CTAG overhangs): binds

B3: hydratase (bifunctional enzyme) PPRE (dsDNA)
DNA 1: GATCCCTTTGACCTATTGAACTATTACCTACATTA
DNA 2: TAATGTAGGTAATAGTTCAATAGGTCAAAGGGATC
binding result (hPPARgamma): no binding
binding result [1]: binds
